Results as given in PMC9482650, “Quantitative fragmentomics allow affinity mapping of interactomes” (Nature Communications, 2022).

T1: MPP6, Q9NZW5
T1 sequence (Q9NZW5 125-219, limits assumed, looked up): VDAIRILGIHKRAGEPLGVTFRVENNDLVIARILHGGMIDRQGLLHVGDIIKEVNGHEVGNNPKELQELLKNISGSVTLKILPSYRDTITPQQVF

T2: MPP7, Q5T2T1
T2 sequence (Q5T2T1 134-230, limits assumed, looked up): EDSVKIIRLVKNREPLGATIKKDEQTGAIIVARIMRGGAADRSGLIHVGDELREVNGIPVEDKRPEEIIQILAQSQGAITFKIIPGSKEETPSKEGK

T3: DFNB31_1, Q9P202
T3 sequence (Q9P202 135-233, limits assumed, looked up): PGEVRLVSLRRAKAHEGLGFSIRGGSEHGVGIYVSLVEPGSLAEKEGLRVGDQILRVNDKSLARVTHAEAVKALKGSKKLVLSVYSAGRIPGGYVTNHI

T4: LRRC7, Q96NW7
T4 sequence (Q96NW7 1440-1537, limits assumed, looked up): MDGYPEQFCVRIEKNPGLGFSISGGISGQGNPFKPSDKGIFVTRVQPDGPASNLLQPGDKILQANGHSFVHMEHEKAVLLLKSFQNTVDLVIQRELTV

T5: GRIP1_7, Q9Y3R0
T5 sequence (Q9Y3R0 999-1096, limits assumed, looked up): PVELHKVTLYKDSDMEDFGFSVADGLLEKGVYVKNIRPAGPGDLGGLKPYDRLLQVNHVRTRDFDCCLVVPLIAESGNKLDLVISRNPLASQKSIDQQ

T6: RAPGEF6, Q8TEU7
T6 sequence (Q8TEU7 525-625, limits assumed, looked up): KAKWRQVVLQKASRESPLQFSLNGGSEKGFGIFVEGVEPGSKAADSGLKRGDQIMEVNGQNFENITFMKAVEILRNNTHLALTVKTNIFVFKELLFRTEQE

T7: MPDZ_10, O75970
T7 sequence (O75970 1624-1722, limits assumed, looked up): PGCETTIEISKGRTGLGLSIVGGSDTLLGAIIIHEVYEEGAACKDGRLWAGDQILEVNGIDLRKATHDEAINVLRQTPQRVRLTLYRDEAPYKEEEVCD

T8: GRIP1_2, Q9Y3R0
T8 sequence (Q9Y3R0 145-248, limits assumed, looked up): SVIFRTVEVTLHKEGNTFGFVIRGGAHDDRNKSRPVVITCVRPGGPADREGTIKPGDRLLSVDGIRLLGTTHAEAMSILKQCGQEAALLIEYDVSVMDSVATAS

T9: CARD11, Q9BXL7
T9 sequence (Q9BXL7 662-765, limits assumed, looked up): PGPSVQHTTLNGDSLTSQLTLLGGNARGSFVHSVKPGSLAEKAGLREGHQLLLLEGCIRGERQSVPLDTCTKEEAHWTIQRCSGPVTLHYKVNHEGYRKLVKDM

T10: RADIL, Q96JH8
T10 sequence (Q96JH8 971-1071, limits assumed, looked up): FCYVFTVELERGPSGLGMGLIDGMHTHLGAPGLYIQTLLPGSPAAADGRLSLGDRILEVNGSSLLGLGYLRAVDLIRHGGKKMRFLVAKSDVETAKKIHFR

T11: MPDZ_5, O75970
T11 sequence (O75970 695-796, limits assumed, looked up): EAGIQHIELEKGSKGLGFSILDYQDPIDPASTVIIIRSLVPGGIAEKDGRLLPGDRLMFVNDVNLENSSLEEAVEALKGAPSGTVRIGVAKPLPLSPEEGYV


Key:
Test in all cases: holdup assay
Parameters in all cases: key: below the threshold = too weak to quantify, mostly under pKd 3.1 to 4
Conditions in all cases: plain residues with an end cap or a label only (N-terminal biotin on a linker: ado-ado)
MAST1, Q9Y2H9 = target: MAST1, Q9Y2H9
MAST1, Q9Y2H9, sequence (Q9Y2H9 962-1065): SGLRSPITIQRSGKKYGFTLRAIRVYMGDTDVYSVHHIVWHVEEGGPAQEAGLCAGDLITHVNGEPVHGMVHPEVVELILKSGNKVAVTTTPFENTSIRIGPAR

MPP6, Q9NZW5 = target: T1, MPP6, Q9NZW5
MPP7, Q5T2T1 = target: T2, MPP7, Q5T2T1
FRMPD2_2, Q68DX3 = target: FRMPD2_2, Q68DX3
FRMPD2_2, Q68DX3, sequence (Q68DX3 944-1038): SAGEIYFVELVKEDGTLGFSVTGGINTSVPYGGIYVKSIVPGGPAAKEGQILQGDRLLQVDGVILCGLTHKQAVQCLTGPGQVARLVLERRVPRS

FRMPD4, Q14CM0 = target: FRMPD4, Q14CM0
FRMPD4, Q14CM0, sequence (Q14CM0 67-160): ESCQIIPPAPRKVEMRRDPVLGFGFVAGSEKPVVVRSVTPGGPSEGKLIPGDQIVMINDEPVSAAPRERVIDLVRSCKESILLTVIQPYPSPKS

GRIP2_6, Q9C0E4 = target: GRIP2_6, Q9C0E4
GRIP2_6, Q9C0E4, sequence (Q9C0E4 648-740): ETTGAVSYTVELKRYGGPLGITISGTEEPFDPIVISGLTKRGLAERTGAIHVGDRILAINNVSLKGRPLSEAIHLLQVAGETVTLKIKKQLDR

IL16_1, Q14005 = target: IL16_1, Q14005
IL16_1, Q14005, sequence (Q14005 210-306): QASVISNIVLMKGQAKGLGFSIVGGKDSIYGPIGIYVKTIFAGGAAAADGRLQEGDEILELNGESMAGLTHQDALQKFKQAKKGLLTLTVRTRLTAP

MAGI3_2, Q5TCQ9 = target: MAGI3_2, Q5TCQ9
MAGI3_2, Q5TCQ9, sequence (Q5TCQ9 398-503): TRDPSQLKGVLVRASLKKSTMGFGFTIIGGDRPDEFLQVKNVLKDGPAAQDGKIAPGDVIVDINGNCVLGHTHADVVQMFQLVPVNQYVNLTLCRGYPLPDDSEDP

MAGI2_5, Q86UL8 = target: MAGI2_5, Q86UL8
MAGI2_5, Q86UL8, sequence (Q86UL8 915-1017): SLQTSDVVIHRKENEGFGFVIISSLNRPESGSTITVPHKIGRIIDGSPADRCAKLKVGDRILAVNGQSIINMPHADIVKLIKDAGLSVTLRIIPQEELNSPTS

Inadl_2, Q8NI35 = target: Inadl_2, Q8NI35
Inadl_2, Q8NI35, sequence (Q8NI35 238-335): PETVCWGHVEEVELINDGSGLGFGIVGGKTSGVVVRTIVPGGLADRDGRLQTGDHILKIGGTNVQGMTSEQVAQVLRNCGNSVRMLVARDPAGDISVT

DFNB31_1, Q9P202 = target: T3, DFNB31_1, Q9P202
LDB3, O75112 = target: LDB3, O75112
LDB3, O75112, sequence (O75112 1-94): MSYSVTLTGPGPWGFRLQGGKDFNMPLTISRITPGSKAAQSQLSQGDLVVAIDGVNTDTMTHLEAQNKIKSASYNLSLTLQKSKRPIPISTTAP

LRRC7, Q96NW7 = target: T4, LRRC7, Q96NW7
FRMPD3, Q5JV73 = target: FRMPD3, Q5JV73
FRMPD3, Q5JV73, sequence (Q5JV73 12-100): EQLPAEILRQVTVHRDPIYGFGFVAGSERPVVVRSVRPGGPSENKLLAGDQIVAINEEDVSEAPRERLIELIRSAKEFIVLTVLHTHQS

GRIP1_7, Q9Y3R0 = target: T5, GRIP1_7, Q9Y3R0
HTRA2, O43464 = target: HTRA2, O43464
HTRA2, O43464, sequence (O43464 355-458): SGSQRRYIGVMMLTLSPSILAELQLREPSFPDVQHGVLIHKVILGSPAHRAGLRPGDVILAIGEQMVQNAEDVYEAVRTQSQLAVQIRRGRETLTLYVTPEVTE

NHERF4_1, Q86UT5-2 = target: NHERF4_1, Q86UT5-2
NHERF4_1, Q86UT5-2, sequence (Q86UT5 other isoform, or with tags, fused parts or gaps): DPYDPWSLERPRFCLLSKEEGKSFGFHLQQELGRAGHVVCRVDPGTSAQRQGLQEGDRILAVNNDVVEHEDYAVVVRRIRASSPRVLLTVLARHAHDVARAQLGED

RAPGEF6, Q8TEU7 = target: T6, RAPGEF6, Q8TEU7
MPDZ_10, O75970 = target: T7, MPDZ_10, O75970
Inadl_4, Q8NI35 = target: Inadl_4, Q8NI35
Inadl_4, Q8NI35, sequence (Q8NI35 547-651): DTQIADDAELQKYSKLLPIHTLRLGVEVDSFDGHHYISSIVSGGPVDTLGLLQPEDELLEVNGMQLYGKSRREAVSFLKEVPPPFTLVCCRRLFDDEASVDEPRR

GRIP1_2, Q9Y3R0 = target: T8, GRIP1_2, Q9Y3R0
DLG4_2, P78352 = target: DLG4_2, P78352
DLG4_2, P78352, sequence (P78352 155-259): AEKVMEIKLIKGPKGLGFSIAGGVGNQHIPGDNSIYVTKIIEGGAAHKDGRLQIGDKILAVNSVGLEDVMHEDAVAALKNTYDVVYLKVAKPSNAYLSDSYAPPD

CARD11, Q9BXL7 = target: T9, CARD11, Q9BXL7
RADIL, Q96JH8 = target: T10, RADIL, Q96JH8
MPDZ_5, O75970 = target: T11, MPDZ_5, O75970
GOPC, Q9HD26 = target: GOPC, Q9HD26

Row | pKd (MAST1, Q9Y2H9) | pKd (MPP6, Q9NZW5) | pKd (MPP7, Q5T2T1) | pKd (FRMPD2_2, Q68DX3) | pKd (FRMPD4, Q14CM0) | pKd (GRIP2_6, Q9C0E4) | pKd (IL16_1, Q14005) | pKd (MAGI3_2, Q5TCQ9) | pKd (MAGI2_5, Q86UL8) | pKd (Inadl_2, Q8NI35) | pKd (DFNB31_1, Q9P202) | pKd (LDB3, O75112) | pKd (LRRC7, Q96NW7) | pKd (FRMPD3, Q5JV73) | pKd (GRIP1_7, Q9Y3R0) | pKd (HTRA2, O43464) | pKd (NHERF4_1, Q86UT5-2) | pKd (RAPGEF6, Q8TEU7) | pKd (MPDZ_10, O75970) | pKd (Inadl_4, Q8NI35) | Binder | other results
1 | 4.8 | below the threshold | below the threshold | below the threshold | 4.29 | below the threshold | below the threshold | below the threshold | 3.54 | below the threshold | 4.42 | below the threshold | below the threshold | below the threshold | below the threshold | below the threshold | 4.38 | below the threshold | below the threshold | below the threshold | GQEEQVTTRL [TRPC5, Q9UL62] | pKd (GRIP1_2, Q9Y3R0): below the threshold; pKd (DLG4_2, P78352): below the threshold; pKd (CARD11, Q9BXL7): below the threshold; pKd (RADIL, Q96JH8): below the threshold; pKd (MPDZ_5, O75970): below the threshold; pKd (GOPC, Q9HD26): 4.83
2 | 4.33 | below the threshold | 4.05 | below the threshold | 4.64 | below the threshold | below the threshold | below the threshold | below the threshold | below the threshold | below the threshold | below the threshold | below the threshold | below the threshold | below the threshold | 4.1 | below the threshold | below the threshold | below the threshold | below the threshold | QPCFNKLFPL [LPXN, O60711] | pKd (GRIP1_2, Q9Y3R0): below the threshold; pKd (DLG4_2, P78352): below the threshold; pKd (CARD11, Q9BXL7): below the threshold; pKd (RADIL, Q96JH8): below the threshold; pKd (MPDZ_5, O75970): below the threshold; pKd (GOPC, Q9HD26): below the threshold

More lines, now with the values behind:

Row | Binder | pKd (MAST1, Q9Y2H9) | pKd (MPP6, Q9NZW5) | pKd (MPP7, Q5T2T1) | pKd (FRMPD2_2, Q68DX3) | pKd (FRMPD4, Q14CM0) | pKd (GRIP2_6, Q9C0E4) | pKd (IL16_1, Q14005) | pKd (MAGI3_2, Q5TCQ9) | pKd (MAGI2_5, Q86UL8) | pKd (Inadl_2, Q8NI35) | pKd (DFNB31_1, Q9P202) | pKd (LDB3, O75112) | pKd (LRRC7, Q96NW7) | pKd (FRMPD3, Q5JV73) | pKd (GRIP1_7, Q9Y3R0) | pKd (HTRA2, O43464) | pKd (NHERF4_1, Q86UT5-2) | pKd (RAPGEF6, Q8TEU7) | pKd (MPDZ_10, O75970) | pKd (Inadl_4, Q8NI35) | other results
3 | SSALYGESDL [ACTN2, P35609] | 4.18 | below the threshold | below the threshold | below the threshold | below the threshold | below the threshold | below the threshold | below the threshold | below the threshold | below the threshold | below the threshold | 4.4 | 3.86 | below the threshold | below the threshold | below the threshold | 3.88 | 3.6 | below the threshold | below the threshold | pKd (GRIP1_2, Q9Y3R0): below the threshold; pKd (DLG4_2, P78352): 3.61; pKd (CARD11, Q9BXL7): below the threshold; pKd (RADIL, Q96JH8): below the threshold; pKd (MPDZ_5, O75970): below the threshold; pKd (GOPC, Q9HD26): below the threshold
4 | PRISRSQSEL [CCDC134, Q9H6E4] | 4.74 | below the threshold | below the threshold | below the threshold | below the threshold | below the threshold | below the threshold | 4.25 | below the threshold | below the threshold | below the threshold | below the threshold | below the threshold | below the threshold | below the threshold | below the threshold | 3.86 | below the threshold | below the threshold | below the threshold | pKd (GRIP1_2, Q9Y3R0): below the threshold; pKd (DLG4_2, P78352): below the threshold; pKd (CARD11, Q9BXL7): below the threshold; pKd (RADIL, Q96JH8): below the threshold; pKd (MPDZ_5, O75970): below the threshold; pKd (GOPC, Q9HD26): below the threshold
